From the supplement of paper PMC5998384 come the findings set out here.

Data set [1] concerns HeLa Kyoto. In words: melting temperature (median over replicates), in situ; higher = more thermally stable.
Data set [2] has as its system HeLa Kyoto. In words: solubility in G1/S (NP-40 vs SDS abundance) (log2 ratio); higher = more soluble. The conditions noted are these: cell cycle stage: G1/S.
Data set [3] concerns HeLa Kyoto. In words: solubility change mitosis vs G1/S (difference of NP-40 vs SDS log2 ratios) (log2 ratio difference); higher = more soluble in mitosis.
Data set [4] deals with HeLa Kyoto. In words: thermal stability score vs G1/S (z-score of summed log2 fold changes over temperatures); higher = more thermally stable than in G1/S.
The mark [5] stands for this setting: cell cycle stage: early G1 (4.5 h after nocodazole release).
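For melting temperature (median over replicates), in situ in this document: HeLa Kyoto cells synchronized by double thymidine or nocodazole block, proteins quantified by TMT10plex mass spectrometry, three independent biological replicates.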
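For solubility change mitosis vs G1/S (difference of NP-40 vs SDS log2 ratios) in this document: synchronized HeLa Kyoto cells (double thymidine block for G1/S, nocodazole release for mitosis), protein amounts in NP-40 versus SDS lysates quantified by mass spectrometry, three biological replicates.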
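For solubility in G1/S (NP-40 vs SDS abundance) in this document: HeLa Kyoto cells arrested at G1/S by double thymidine block, proteins quantified by TMT10plex mass spectrometry in mild NP-40 versus SDS extracts, three biological replicates.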
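For thermal stability score vs G1/S (z-score of summed log2 fold changes over temperatures) in this document: synchronized HeLa Kyoto cells, proteins quantified by TMT10plex mass spectrometry, three biological replicates, mitosis taken 0.5 h after nocodazole release, G1/S directly after double thymidine block.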

On to “MALSRGLPRELAEAVAGGRVLVVGAGGIGCELLKNLVLTGFSHIDLIDLDTIDVSNLNRQFLFQKKHVGRSKAQVAKESVLQFYPKANIVAYHDSIMNPDYNVEFFRQFILVMNALDNRAARNHVNRMCLAADVPLIESGTAGYLGQVTTIKKGVTECYECHPKPTQRTFPGCTIRNTPSEPIHCIVWAKYLFNQLFGEEDADQEVSPDRADPEAAWEPTEAEARARASNEDGDIKRISTKEWAKSTGYDPVKLFTKLFKDDIRYLLTMDKLWRKRKPPVPLDWAEVQSQGEETNASDQQNEPQLGLKDQQVLDVKSYARLFSKSIETLRVHLAEKGDGAELIWDKDDPSAMDFVTSAANLRMHIFSMNMKSRFDIKSMAGNIIPAIATTNAVIAGLIVLEGLKILSGKIDQCRTIFLNKQPNPRKKLLVPCALDPPNPNCYVCASKPEVTVRLNVHKVTVLTLQDKIVKEKFAMVAPDVQIEDGKGTILISSEEGETEANNHKKLSEFGIRNGSRLQADDFLQDYTLLINILHSEDLGKDVEFEVVGDAPEKVGPKQAEDAAKSITNGSDDGAQPSTSTAQEQDDVLIVDSDEEDSSNNADVSEEERSRKRKLDEKENLSAKRSRIEQKEELDDVIALD [UBA2]”, for which the figures for the melting temperature in data set [1] (cell cycle stage: G1/S) and in data set [1] (cell cycle stage: mitosis) were 52.2 °C and 52 °C, respectively. The “solubility in G1/S (log2)” value in data set [2] amounted to 0.146. For the same sequence, in data set [3], the “solubility change mitosis (log2)” value is -0.204. The thermal stability score in data set [4] (setting [5]) was -0.2; in data set [4] (cell cycle stage: mitosis) it was 0.883.

Take “MALTRPVRLFSLVTRLLLAPRRGLTVRSPDEPLPVVRIPVALQRQLEQRQSRRRNLPRPVLVRPGPLLVSARRPELNQPARLTLGRWERAPLASQGWKSRRARRDHFSIERAQQEAPAVRKLSSKGSFADLGLEPRVLHALQEAAPEVVQPTTVQSSTIPSLLRGRHVVCAAETGSGKTLSYLLPLLQRLLGQPSLDSLPIPAPRGLVLVPSRELAQQVRAVAQPLGRSLGLLVRDLEGGHGMRRIRLQLSRQPSADVLVATPGALWKALKSRLISLEQLSFLVLDEADTLLDESFLELVDYILEKSHIAEGPADLEDPFNPKAQLVLVGATFPEGVGQLLNKVASPDAVTTITSSKLHCIMPHVKQTFLRLKGADKVAELVHILKHRDRAERTGPSGTVLVFCNSSSTVNWLGYILDDHKIQHLRLQGQMPALMRVGIFQSFQKSSRDILLCTDIASRGLDSTGVELVVNYDFPPTLQDYIHRAGRVGRVGSEVPGTVISFVTHPWDVSLVQKIELAARRRRSLPGLASSVKEPLPQAT [DDX28]”: the melting temperature in data set [1] (cell cycle stage: G1/S) was determined as 50 °C; in data set [1] (cell cycle stage: mitosis), 50.9 °C. Besides, the “solubility in G1/S (log2)” value in data set [2] was -0.336. For the same sequence, in data set [3], the “solubility change mitosis (log2)” value stood at 0.0712. Further, the thermal stability score in data set [4] (setting [5]) was -0.0521; in data set [4] (cell cycle stage: mitosis) it was 1.54.

On to “MAMAYLAWRLARRSCPSSLQVTSFPVVQLHMNRTAMRASQKDFENSMNQVKLLKKDPGNEVKLKLYALYKQATEGPCNMPKPGVFDLINKAKWDAWNALGSLPKEAARQNYVDLVSSLSPSLESSSQVEPGTDRKSTGFETLVVTSEDGITKIMFNRPKKKNAINTEMYHEIMRALKAASKDDSIITVLTGNGDYYSSGNDLTNFTDIPPGGVEEKAKNNAVLLREFVGCFIDFPKPLIAVVNGPAVGISVTLLGLFDAVYASDRATFHTPFSHLGQSPEGCSSYTFPKIMSPAKATEMLIFGKKLTAGEACAQGLVTEVFPDSTFQKEVWTRLKAFAKLPPNALRISKEVIRKREREKLHAVNAEECNVLQGRWLSDECTNAVVNFLSRKSKL [ECI2]”, for which the melting temperature in data set [1] (cell cycle stage: G1/S) came to 53.6 °C; in data set [1] (cell cycle stage: mitosis) it was 53.2 °C. The “solubility in G1/S (log2)” value in data set [2] was 0.369. The “solubility change mitosis (log2)” value in data set [3] is -0.0636. For the same sequence, the thermal stability score in data set [4] (setting [5]) was -0.204; in data set [4] (cell cycle stage: mitosis) it was 0.871.

“MAMDQVNALCEQLVKAVTVMMDPNSTQRYRLEALKFCEEFKEKCPICVPCGLRLAEKTQVAIVRHFGLQILEHVVKFRWNGMSRLEKVYLKNSVMELIANGTLNILEEENHIKDALSRIVVEMIKREWPQHWPDMLIELDTLSKQGETQTELVMFILLRLAEDVVTFQTLPPQRRRDIQQTLTQNMERIFSFLLNTLQENVNKYQQVKTDTSQESKAQANCRVGVAALNTLAGYIDWVSMSHITAENCKLLEILCLLLNEQELQLGAAECLLIAVSRKGKLEDRKPLMVLFGDVAMHYILSAAQTADGGGLVEKHYVFLKRLCQVLCALGNQLCALLGADSDVETPSNFGKYLESFLAFTTHPSQFLRSSTQMTWGALFRHEILSRDPLLLAIIPKYLRASMTNLVKMGFPSKTDSPSCEYSRFDFDSDEDFNAFFNSSRAQQGEVMRLACRLDPKTSFQMAGEWLKYQLSTFLDAGSVNSCSAVGTGEGSLCSVFSPSFVQWEAMTLFLESVITQMFRTLNREEIPVNDGIELLQMVLNFDTKDPLILSCVLTNVSALFPFVTYRPEFLPQVFSKLFSSVTFETVEESKAPRTRAVRNVRRHACSSIIKMCRDYPQLVLPNFDMLYNHVKQLLSNELLLTQMEKCALMEALVLISNQFKNYERQKVFLEELMAPVASIWLSQDMHRVLSDVDAFIAYVGTDQKSCDPGLEDPCGLNRARMSFCVYSILGVVKRTCWPTDLEEAKAGGFVVGYTSSGNPIFRNPCTEQILKLLDNLLALIRTHNTLYAPEMLAKMAEPFTKALDMLDAEKSAILGLPQPLLELNDSPVFKTVLERMQRFFSTLYENCFHILGKAGPSMQQDFYTVEDLATQLLSSAFVNLNNIPDYRLRPMLRVFVKPLVLFCPPEHYEALVSPILGPLFTYLHMRLSQKWQVINQRSLLCGEDEAADENPESQEMLEEQLVRMLTREVMDLITVCCVSKKGADHSSAPPADGDDEEMMATEVTPSAMAELTDLGKCLMKHEDVCTALLITAFNSLAWKDTLSCQRTTSQLCWPLLKQVLSGTLLADAVTWLFTSVLKGLQMHGQHDGCMASLVHLAFQIYEALRPRYLEIRAVMEQIPEIQKDSLDQFDCKLLNPSLQKVADKRRKDQFKRLIAGCIGKPLGEQFRKEVHIKNLPSLFKKTKPMLETEVLDNDGGGLATIFEP [XPO5]”: the melting temperature stood at 49 °C in data set [1] (cell cycle stage: G1/S) and 48.9 °C in data set [1] (cell cycle stage: mitosis). For the same sequence, the “solubility in G1/S (log2)” value in data set [2] was -0.158. Besides, the “solubility change mitosis (log2)” value in data set [3] was -0.175. For the same sequence, the figures for the thermal stability score in data set [4] (setting [5]) and in data set [4] (cell cycle stage: mitosis) were 0.753 and 2.34, respectively.
